Reference: patent US20200262867A1 (WNTRX PHARMACEUTICALS, published 2020)
Bridges are numbered along the chain shown (N, C = ends). Primed or numbered codes have the meaning given here. Where no end group is shown, it is not given here. [ ]: non-standard residue; d: D form. S5′ = (S)-2-(4'-pentenyl)alanine, olefinic stapling residue closed by ring-closing metathesis; NMeR′ = N-methylarginine (methylation site not shown in the text); 2Nal = N[C@@H](Cc1ccc2ccccc2c1)C(=O)O; pentenylAla = 2-(4'-pentenyl)alanine; NMeR = CN[C@@H](CCCNC(=N)N)C(=O)O; Ala(cPr) = N[C@@H](CC1CC1)C(=O)O; NMeT = CN[C@H](C(=O)O)[C@@H](C)O; NMeQ = CN[C@@H](CCC(N)=O)C(=O)O; dNMeQ = CN[C@H](CCC(N)=O)C(=O)O; Cha = N[C@@H](CC1CCCCC1)C(=O)O; NMeL = CN[C@@H](CC(C)C)C(=O)O; αMeL = CC(C)C[C@](C)(N)C(=O)O; Cba = N[C@@H](CC1CCC1)C(=O)O; S5 = C=CCCC[C@](C)(N)C(=O)O; Nle = CCCC[C@H](N)C(=O)O; Abu = CC[C@H](N)C(=O)O; βAla = NCCC(=O)O

B1: SEQ ID NO: 122 (peptide)
peptide: Ac-LQTLR[S5]IQR[S5][Cha][2Nal]-NH2
modifications: staple 6-10; not fully specified (residue 2); printed as L(N-methylQ)TLRXIQRX(Cha)(2-Nal)
B2: SEQ ID NO: 125 (peptide)
peptide: Ac-L[NMeQ]TLR[S5]IQ[NMeR′][S5][Cba][2Nal]-NH2
modifications: staple 6-10; not fully specified; printed as L(N-methylQ)TLRXIQ(N-methylR)X(CBA)(2-Nal)
B3: SEQ ID NO: 128 (peptide)
peptide: Ac-LQTL[NMeR′][S5]IQ[NMeR′][S5][Cba][2Nal]-NH2
modifications: staple 6-10; not fully specified (residue 2); printed as L(N-methylQ)TL(N-methylR)XIQ(N-methylR)X(CBA)(2-Nal)
B4: SEQ ID NO: 121 (peptide)
peptide: Ac-LQ[NMeT]LR[S5]IQR[S5][Cba][2Nal]-NH2
modifications: staple 6-10; not fully specified (residue 2); printed as L(N-methylQ)(N-methylT)LRXIQRX(CBA)(2-Nal)
B5: SEQ ID NO: 120 (peptide)
peptide: HOCH2CH2CO-LQTLR[S5]IQR[S5][Cba][2Nal]-NH2
modifications: staple 6-10; not fully specified (residue 2); printed as L(N-methylQ)TLRXIQRX(CBA)(2-Nal)
B6: SEQ ID NO: 40 (peptide)
peptide: Ac-RE[S5]SLQ[S5]LR[S5]IQR[S5]L[2Nal][βAla][βAla]-NH2
modifications: staple 10-14, 3-7; not fully specified; printed as REXaa1SLQXaa2LRXaa3IQRXaa4L(2-Nal)(β-Ala)(β-Ala)
B7: SEQ ID NO: 119 (peptide)
peptide: Ac-LQTLR[S5]IQR[S5][Ala(cPr)][2Nal]-NH2
modifications: staple 6-10; not fully specified (residue 2); printed as LN(Me-Gln)TLRXIQRX(Cpa)(2-Nal)
B8: SEQ ID NO: 126 (peptide)
peptide: Ac-L[NMeQ]T[αMeL]R[S5]IQR[S5][Cba][2Nal]-NH2
modifications: staple 6-10; not fully specified; printed as L(N-methylQ)T(α-methylL)RXIQRX(CBA)(2-Nal)
B9: SEQ ID NO: 124 (peptide)
peptide: Ac-L[NMeQ]TL[NMeR′][S5]IQR[S5][Cba][2Nal]-NH2
modifications: staple 6-10; not fully specified; printed as L(N-methylQ)TL(N-methylR)XIQRX(CBA)(2-Nal)
B10: SEQ ID NO: 118 (peptide)
peptide: Ac-[NMeL]QTLR[S5]IQR[S5][Cba][2Nal]-NH2
modifications: staple 6-10; not fully specified (residue 2); printed as (Me-L)(N-MeQ)TLRXIQRX(CBA)(2-Nal)
B11: SEQ ID NO: 127 (peptide)
peptide: Ac-LQTLR[S5]IQR[S5][Cha][2Nal]-NH2
modifications: staple 6-10
SMILES: CC[C@H](C)[C@@H]1NC(=O)[C@@](C)(NC(=O)[C@H](CCCNC(=N)N)NC(=O)[C@H](CC(C)C)NC(=O)[C@@H](NC(=O)[C@H](CCC(N)=O)NC(=O)[C@H](CC(C)C)NC(C)=O)[C@@H](C)O)CCCC=CCCC[C@@](C)(C(=O)N[C@@H](CC2CCCCC2)C(=O)N[C@@H](Cc2ccc3ccccc3c2)C(N)=O)NC(=O)[C@H](CCCNC(=N)N)NC(=O)[C@H](CCC(N)=O)NC1=O

Each binder was assayed against T1, β-catenin (UniProt P35222 1-781, limits assumed) (assay: ALPHA Screen (BCL9/β-catenin);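 further: bead proximity readout with the polypeptide linked to donor beads and β-catenin fixed on acceptor beads, their binding bringing the beads close enough to emit signal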).
T1 construct: also called beta-catenin
T1 sequence (looked up): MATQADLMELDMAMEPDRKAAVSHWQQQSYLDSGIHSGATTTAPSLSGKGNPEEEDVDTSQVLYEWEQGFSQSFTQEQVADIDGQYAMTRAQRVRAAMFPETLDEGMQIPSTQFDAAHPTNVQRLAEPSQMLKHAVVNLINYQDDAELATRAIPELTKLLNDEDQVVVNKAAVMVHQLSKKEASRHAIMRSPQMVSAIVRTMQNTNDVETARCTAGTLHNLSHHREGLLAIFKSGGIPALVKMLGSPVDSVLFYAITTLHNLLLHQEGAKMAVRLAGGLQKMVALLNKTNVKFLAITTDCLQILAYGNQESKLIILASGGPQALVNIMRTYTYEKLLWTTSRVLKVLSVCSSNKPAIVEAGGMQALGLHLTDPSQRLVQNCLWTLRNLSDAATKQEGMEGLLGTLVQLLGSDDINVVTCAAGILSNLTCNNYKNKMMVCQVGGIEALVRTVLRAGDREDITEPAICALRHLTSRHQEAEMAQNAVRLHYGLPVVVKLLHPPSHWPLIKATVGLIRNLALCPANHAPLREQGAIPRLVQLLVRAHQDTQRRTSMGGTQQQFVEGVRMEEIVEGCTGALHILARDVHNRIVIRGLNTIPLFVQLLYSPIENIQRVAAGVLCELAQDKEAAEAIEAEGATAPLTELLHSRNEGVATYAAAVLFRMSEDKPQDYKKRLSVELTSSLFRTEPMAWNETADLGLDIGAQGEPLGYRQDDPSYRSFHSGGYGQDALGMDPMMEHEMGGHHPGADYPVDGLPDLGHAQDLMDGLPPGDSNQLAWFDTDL
Text: In this assay, a polypeptide is conjugated to a donor bead and its target protein (i.e., β-catenin) is attached to an acceptor bead. When the two beads are in proximity due to the binding of the polypeptide to the target protein, a signal is generated and the binding affinity of the polypeptide can be quantitatively calculated. The assay may be conducted in the presence or absence of an unconjugated control polypeptide.

Row | Binder | IC50 [µM]
1 | Ac-LQTLR[S5]IQR[S5][Cba][2Nal]-NH2 (staple 6-10) [SEQ ID NO: 107] | 0.316
2 | HRERSLQTLRDIQRML[2Nal] [SEQ ID NO: 61] | 1.38
3 | Ac-HR[S5′]RSL[S5′]TLR[S5′]IQR[S5′][Cba][2Nal]-NH2 (staple 11-15, 3-7) [SEQ ID NO: 94] | 0.175
4 | Ac-RE[S5]SLQ[S5]LR[S5]IQR[S5]L[2Nal]-NH2 (staple 10-14, 3-7; not fully specified; printed as REXSLQXLRZIQRZL(2-Nal)) [SEQ ID NO: 39] | 2.19
5 | Ac-LQTLR[S5]IQR[S5]L[2Nal]PD-NH2 (staple 6-10; not fully specified; printed as LQTLRXIQRXL(2-Nal)PD) [SEQ ID NO: 32] | 12.2
6 | Ac-QLEHRERSL[S5]TLR[S5]IQR[Abu]L[2Nal][βAla][βAla]-NH2 (staple 10-14) [SEQ ID NO: 78] | 0.09
7 | B1 | 7.17
8 | LQTLR[Nle]IQR[Nle]L[2Nal] [SEQ ID NO: 52] | 4.7
9 | B2 | 10.6
10 | B3 | 29.5
11 | B4 | 5.01
12 | B5 | 5.44
13 | B6 | 2.39
14 | H-HRE[S5′]SLQ[S5′]LR[S5′]IQR[S5′][Cba][2Nal]-OH (staple 11-15, 4-8) [SEQ ID NO: 82] | 1.01
15 | Ac-HRQ[S5′]SLQ[S5′]LR[S5′]IQR[S5′][Cba][2Nal]-NH2 (staple 11-15, 4-8) [SEQ ID NO: 87] | 2.66
16 | Ac-HRE[S5′]SLQ[S5′]LR[S5′]IQQ[S5′][Cba][2Nal]-OH (staple 11-15, 4-8) [SEQ ID NO: 83] | 50
17 | QLEHRERSLQTLRDIQRML[2Nal] [SEQ ID NO: 65] | 1.64
18 | QLEHRERSL[Nle]TLR[Nle]IQRML[2Nal] [SEQ ID NO: 67] | 1.08
19 | QLEHRERSLQTLR[Nle]IQR[Nle]L[2Nal] [SEQ ID NO: 66] | 0.73

Row | Binder | IC50 [µM]
20 | B7 | 15.8
21 | EHRERSLQTLRDIQRML[2Nal] [SEQ ID NO: 63] | 2.5
22 | B8 | 7.43
23 | R[pentenylAla][Ala(cPr)][dNMeQ][pentenylAla][Ala(cPr)]R[pentenylAla]IQR[pentenylAla][Ala(cPr)][2Nal][βAla][βAla] (staple 8-12, 2-5) [SEQ ID NO: 89] | 2.46
24 | Ac-LQTLR[S5]IQR[S5]L[2Nal]P-NH2 (staple 6-10; not fully specified; printed as LQTLRXIQRXL(2-Nal)P) [SEQ ID NO: 33] | 11.8
25 | EHRERSLQTLR[Nle]IQR[Nle]L[2Nal] [SEQ ID NO: 64] | 1.73
26 | B9 | 2.74
27 | Ac-LQTLR[S5]IQR[S5]L[2Nal][βAla][βAla]-NH2 (staple 6-10; not fully specified; printed as LQTLRXIQRXL(2-Nal)(β-Ala)(β-Ala)) [SEQ ID NO: 34] | 9.62
28 | Ac-LQTLR[S5]IQA[S5]L[2Nal]AA-NH2 (staple 6-10; not fully specified; printed as LQTLRXIQAXL(2-Nal)AA) [SEQ ID NO: 27] | 6.12
29 | HRERSLQTLR[Nle]IQR[Nle]L[2Nal] [SEQ ID NO: 62] | 0.84
30 | LR[Nle]IQR[Nle]L[2Nal] [SEQ ID NO: 50] | 2.54
31 | B10 | 6.33
32 | Ac-HRE[S5′]SLQ[S5′]LR[Nle]IQR[Nle]L[2Nal]-OH (staple 4-8) [SEQ ID NO: 80] | 5.33
33 | Ac-HRE[S5′]SLQ[S5′]LR[Nle]IQR[Nle][Cba][2Nal]-OH (staple 4-8) [SEQ ID NO: 81] | 45.5
34 | Ac-LQTL[NMeR][S5]IQR[S5][Cba][2Nal]-NH2 (staple 6-10; not fully specified (residue 2)) [SEQ ID NO: 117] | 4.23
35 | LQTLRDIQRML[2Nal] [SEQ ID NO: 51] | 5.78
36 | RERSLQTLR[Nle]IQR[Nle]L[2Nal] [SEQ ID NO: 60] | 2.42
37 | B11 | 10.1
